Experimental data reported in the DeepSol protein solubility set.

Assay: soluble on expression in E. coli; label from the status in PepcDB or PDB records

| Sequence | soluble on expression in E. coli |
| --- | --- |
| MGSDKIHHHHHHMDTKAFKRALHQSDRYNRKGFGKTTDVSGALESAYQSDLIQSLRQNGYRLQRGEITIRLAEAFGFCWGVERAVAIAYETRQHFPQERIWITNEIIHNPSVNQHLREMSVEFIPCERGEKDFSVVDRGDVVILPAFGASVQEMQLLDEKGCHIVDTTCPWVSKVWNTVEKHKRGAHTSIIHGKYNHEETVATSSFAETYLVVLNLEQAQYVCDYILNGGDRDEFMTRFGKACSAGFDPDRDLERIGIANQTTMLKSETEAIGKLFERTLLKKYGPQALNDHFLAFNTICDATQERQDAMFQLVEEPLDLIVVIGGFNSSNTTHLQEIAIERQIPSFHIDAAERIGPGNRIEHKPLHTDLTTTEPWLPAGPLTIGITSGASTPDKVVEDVIERLFDLQRS | not soluble |
| MEDILMPEGEKVSMENFALLRVLGKGAYGKVFLVRKVGGKDHNTIYAMKVLRKTRVLTKQKTLEHTMAERQVLERLRGTPFLVNLFYAFQTDTKLHIVMEYVRGGELFTHLCSRGHFDLEAARFVIAELVVAIDSLHQRKVIYRDLKLENILLDEEGHVKLTDFGLSKLFLPGELDRANSYCGTIEYMSPEVINRPEGGYSDVVDWWSLGVISFELLTGCSPFTVDGAQNSSKDIAKRIMTKKVPFPKTMDVDARDFIGQLLEKKLEKRLGYNGVDEIKNHKFMSSIDWDAAVKRTLKPVIVPRIGHDLDTQFFSAEFTSQPPLYSPAESPLNANTLFRGYSYVSPSVIFANDNVIGEELMAEDVNALLASSSFFAKYKLDKSDAGLLGKGAFSVVRRCERVVDGAQFAVKIVSQKFASQAQREARILEMVQGHPNIVQLHDVHSDPLHFYLVMEILTGNELLERIRKLERFTESEAADIMRQLVSAVKYLHDKRIVHRDLKPENILFESIDSSARLRLVDFGFARLLPNSMEQQLKSVQVLRKMTPCFTLQYAAPEVLDVGDSQPEYNEQCDLWSLGVVLFTMLSGQVPFHARSRQESATEIMQRICRAEFSFTGDAWTNVSADAKNLITGLLTVDPKKRLSMQELTAHMWLKSSASMDTPLQTPSILPSSADETFNETLRAFLHANRDGFHLLDVAAAPLMKRRGIKRQSGDKDASGNSKNSRVTQFECLPEEQEAEMTSSTSRPSNLGMMNYREPNSGTIRETRGSDSS | not soluble |
| MSDLKNLILNSSILLDTSSTVQNDLNPEQLINVHEDSDGGRDLLTPESFILLMAEILSTNNADTICEYEHQNSADNKVLQNLQFKEVEEDEQIEGLNEQKKSLDNPLWHDVDLPVINEISGNQCEGQFESTLEKNVALTWINSENFQPPIVKPENQTDETYKIWDSEITSIESGKLKLDFPKADYDGNNINPYQKEAINQPGNDSSKNHQLIKGNDSFPILEDIKTNAEPGTKAIKSEVEATKVGTEIPGSSFQMNQKAGSDIQPPVVSNSHIPKNFSIPIHVNHSQWSEQLSEHIVWLGHQDVKSALIKIHPEELGPLEINVKVVKDNASVNISTHSVYVKEIVDQAIPRLREMMAQQGINLSEVHIGTDTSSRQGSQKNHHAEIDLIQSAEDKNKITSLTRHLPKGLVDYFA | not soluble |
| GMGSYQLLVPPPEALSKPLSVPTRLLLGPGPSNLAPRVLAAGSLRMIGHMQKEMLQIMEEIKQGIQYVFQTRNPLTLVVSGSGHCAMETALFNLLEPGDSFLTGTNGIWGMRAAEIADRIGARVHQMIKKPGEHYTLQEVEEGLAQHKPVLLFLVHGESSTGVVQPLDGFGELCHRYQCLLLVDSVASLGGVPIYMDQQGIDIMYSSSQKVLNAPPGISLISFNDKAKYKVYSRKTKPVSFYTDITYLAKLWGCEGETRVIHHTTPVTSLYCLRESLALIAEQGLENCWRRHREATAHLHKHLQEMGLKFFVKDPEIRLPTITTVTVPAGYNWRDIVSYVLDHFSIEISGGLGPTEERVLRIGLLGYNATTENVDRVAEALREALQHCPKNKL | soluble |
| MHTDMKSVGTVSMQEAPLLEIAVVGHTNTGKTSLIRTLLRSTSFGRVDDAAGTTRHVERATIFAGSEAVLNLHDTPGIEDVYALQDKLHLIATRNKRSTQSELLEKFVAATPLNDPLEQEAKVIRQVLRSDVLLYVIDVREPVLEKYLIEIEILGKAMKPMIPIFNFTAAHRAELDLWRKKLAAFNIYASLELDTVAFAFEAEKRLYQKIQSLLEVHYTRLQRLIDHRARVWNQLCMSAARRIAGLIITTACYREHTGDERSSAGDTSSAAIRLQDFIRQAEQHCLVDLLKMFNFTDKDIELQKIPVQNGYWQLDLFAPGVLKAYGLDIGSAALKGAAAGAGIDLMTGGLSLGVASMLGALAGTGWSTFRRYGKEIQAKIRGTRWLCVDDSTLQLLYLRQRQLLDKLMNRGHAACHTDQVSQQPERGELPDGWQQIIDMLRQNPAWGRSPGLHTDDTRQYSSIEKRLIDALLKNPAL | not soluble |
| MGSDKIHHHHHHMSPKTALNLFSLLWQNYSARVPYARTYEQMITAAGGTVANDHIAFRSLRLLVDSPRGKVNLGINYLSQIAEALGYEPAGEYNFPQTHLYARHYRHPQQIEFDLPKLFISELIVDELPDNIIQLITQTVSTVADEFTSPLTYFSPAEGNDGVIAQQLQKFFTRPWMTPRRSVVEAVNQVTQYGAWVLLHGYAVNHFTGYVNRHQTPEYADIDDTARGLANLGVPMKAEIEGDVTWGLRQTATQAVKEMVTVIDDISGQEVEIPWTYAYYEIAQRYPLQVEPGKEKLFDGFLGNNAQQLFEMTRLVECDAAKIGK | not soluble |
| MKLRASVLIGATILCLILSACSNYAKKVVKQKNHVYTPVYNELIEKYSEIPLNDKLKDTPFMVQVKLPNYKDYLLDNKQVVLTFKLVHHSKKITLIGDANKILQYKNYFQANGARSDIDFYLQPTLNQKGVVMIASNYNDNPNSKEKPQTFDVLQGSQPMLGANTKNLHGYDVSGANNKQVINEVAREKAQLEKINQYYKTLLQDKEQEYTTRKNNQREILETLSNRAGYQMRQNVISSEIFKNGNLNMQAKEEEVREKLQEERENEYLRNQIRSLLSGK | not soluble |
| MNPQTDNVFYATNAFTGEALPLAFPVHTEVEVNQAATAAAKVARDFRRLNNSKRASLLRTIASELEARSDDIIARAHLETALPEVRLTGEIARTANQLRLFADVVNSGSYHQAILDTPNPTRAPLPKPDIRRQQIALGPVAVFGASNFPLAFSAAGGDTASALAAGCPVIVKGHTAHPGTSQIVAECIEQALKQEQLPQAIFTLLQGNQRALGQALVSHPEIKAVGFTGSVGGGRALFNLAHERPEPIPFYGELGAINPTFIFPSAMRAKADLADQFVASMTMGCGQFCTKPGVVFALNTPETQAFIETAQSLIRQQSPSTLLTPGIRDSYQSQVVSRGSDDGIDVTFSQAESPCVASALFVTSSENWRKHPAWEEEIFGPQSLIVVCENVADMLSLSEMLAGSLTATIHATEEDYPQVSQLIPRLEEIAGRLVFNGWPTGVEVGYAMVHGGPYPASTHSASTSVGAEAIHRWLRPVAYQALPESLLPDSLKAENPLEIARAVDGKAAHS | soluble |
| MGSDKIHHHHHHNEMTEMNPDTNRTIGLDVYTEVQTRGTETTTSTLKANAGFGIFAYQTSSAGWNSEKGNTTPNFMYNEHATWTSDSWGYTNLRFWPIDDKKITFFAYAPYESKPEVGTDQKITLSGQNAKGAPTITFEVKTSNNWKDMIDLVTDCHTAIQDQTNESNKGTVQFKFSHVLTQIANIKVKPDVNLGTDTKIFVTGLKLDPGSTTLYNKAVYKFDNDTWEAISPDASYFSTEQDLSDFLNKTTTDQWGYNKSSINVSDDQNATALFSDTEALYFIPVNNKNGTTNAGDLKLKINYDIVTKVTDTSNLTSTITNKEVSLPKNTFKKGTKHTYVLTIKMNAIKITVEDNMEGWTDDSDSDINVEK | not soluble |
| MSLRLSLLSSTSKYKVTVAEVQRRLSPPECLNASLLGGVLRRAKSKNGGRSLREKLDKIGLNLPAGRRKAAHVTLLTSLVEGEAVHLARDFAYVCEAEFPSKPVAEYLTRPHLGGRNEMAARKNMLLAAQQLCKEFTELLSQDRTPHGTSRLAPVLETNIQNCLSHFSLITHGFGSQAICAAVSALQNYIKEALIVIDKSYMNPGDQSPADSNKTLEKMEKHREGHHHHHH | not soluble |
| MITVSIAGGSQPEILQLVKKALKEAEQPLQFIVFDTNENLDTENLWKYVHCSDEAAVAQEAVSLVATGQAQILLKGIIQTHTLLKEMLKSEHQLKNKPILSHVAMVELPAGKTFLLTDCAMNIAPTQATLIEIVENAKEVAQKLGLHHPKIALLSAAENFNPKMPSSVLAKEVTAHFNDQQEATVFGPLSLDLATSEEAVAHKRYSGPIMGDADILVVPTIDVGNCLYKSLTLFGHAKVGGTIVGTKVPVVLTSRSDSTESKFHSLRFAMRQVHHHHHH | soluble |
| MVVSIGVFDGVHIGHQKVLRTMKEIAFFRKDDSLIYTISYPPEYFLPDFPGLLMTVESRVEMLSRYARTVVLDFFRIKDLTPEGFVERYLSGVSAVVVGRDFRFGKNASGNASFLRKKGVEVYEIEDVVVQGKRVSSSLIRNLVQEGRVEEIPAYLGRYFEIEGIVHKDREFGRKLGFPTANIDRGNEKLVDLKRGVYLVRVHLPDGKKKFGVMNVGFRPTVGDARNVKYEVYILDFEGDLYGQRLKLEVLKFMRDEKKFDSIEELKAAIDQDVKSARNMIDDIINSKFEKEG | soluble |
| DDFLTLDACKIALKEMKKGFDLLCFDAFVHRVKTKQFYRFKQDEFFNQKEFLEFLSKQRHFCWSVWAKCFRKDIILKSFEKIKIDERLSYGEDVLFCYVYFMFCEKIAVFKTCIYHYEFNPNGRYENKNKEILWQNYQDKKKSNELVKKLCLNFKNNDFHKKLFEVLEKEEFDLQRRVDEARN | not soluble |
| IVGGYTCEENSLPYQVSLNSGSHFCGGSLISEQWVVSAAHCYKTRIQVRLGEHNIKVLEGNEQFINAAKIIRHPKYNRDTLDNDIMLIKLSSPAVINARVSTISLPTAPPAAGTECLISGWGNTLSFGADYPDELKCLDAPVLTQAECKASYPGKITNSMFCVGFLEGGKDSCQRDAGGPVVCNGQLQGVVSWGHGCAWKNRPGVYTKVYNYVDWIKDTIAANS | soluble |
| MGSDKIHHHHHHMYPQRIEPQPGQESVWDYPRPPRLEDTSKHIQIIFNGVIIADTQNAKRVLETSHPPSYYIPPGDIKMEHLIPTPQSSFCEWKGLAGYYTIRVGDKEVQNAAWFYPNPTTAFASLRDHVAFYAHLMDACYVDGDQVEPQPGNFYGGWITKDVVGPFKGIPGSWGW | not soluble |
| MKTNYHTHTTRCMHAVGDDEDYVRSAIKGGFQELGFSDHGPWKYHTDFVSDIRMLPEDLPEYIESIRALKEKYRNQISIKIGLEYEYFPEYIHWLKEIIKEYRLDYILFGNHHYHTDEKFPYFGHHTTNRDMLDLYEESTIEGMESGLFAYLAHPDLFMRSYPEFDKHCISVSRHICRAAARLHIPLEYNIGYVAINEARGITTYPCPQFWHIAANEGCTAIIGLDAHNNLDLENPTYYDRACQELNALKMPVIDTIPFLKY | not soluble |
| MGSDKIHHHHHHMMYIGLPQWQHPAWSRLGLNDLADYSRYFSCVEGNTTFYALPSREIVGRWRDMTHDNFRFCFKFPSTISHKAALQNCDSDVSLFYQCLEPIEHRIGQLWLQLPATFGPVLLPVLWRFLDALPQGFSYGVEVRHPLFFTKGDEERALNQGLQQRGINRVILKRHI | not soluble |
| VADATTLAVVGPGVMAKTITEACIAERPGITTIKIKGRSERGINAFATWALEKFPEIEVVAVGSEEDVVKDADIVIAATTTDAAGSSAFPYFKKEWLKPGALLLLPAAGRFDDAYLLDDARLVVDYMGLYEAWAEEYGPQAYQLLGIPGTHWYDLALQGKLDLAKISQIGDICSGKLPGRTNDEEIILYSVGG | not soluble |
| MAGDPMNVEGMATGGIHMELHCPQCQHVLDQDNGHARCRSCGEFIEMKALCPDCHQPLQVLKACGAVDYFCQHGHGLISKKRVEFVLALEHHHHHH | not soluble |
